This is an account of results in patent publication US20150368323A1 (MorphoSys, published 2015).

Changes are numbered by the printed parent chain. Ends that are not written are not given here.

Sequences and labels used below:
B1: M-C1 (antibody, V domains shown)
VH: EVQLLESGGGLVQPGGSLRLSCAASGFTFSSYAMNWVRQAPGKGLEWVSVISSDGSDTYYADSVKGRFTISRDNSKNTLYLQMNSLRAEDTAVYYCARESYYIGWDYWGQGTLVTVSS
VL: DIVLTQSPATLSLSPGERATLSCRASQRVSSSFLAWYQQKPGQAPRLLIYLASNRATGIPARFSGSGSGTDFTLTISSLEPEDFAVYYCLQYGHYPPTFGQGTKVEIKR
notes: Framework VH3-23 kappa 3
B2: M-C5.2 (antibody, V domains shown)
VH: EVQLLESGGGLVQPGGSLRLSCAASGFTFSSYAVHWVRQAPGKGLEWVSVISGRGGSTYYADSVKGRFTISRDNSKNTLYLQMNSLRAEDTAVYYCARDHGYFDYWGQGTLVTVSS
VL: DIQMTQSPSSLSASVGDRVTITCRASQTISNHLGWYQQKPGKAPKLLIYTASNLQSGVPSRFSGSGSGTDFTLTISSLQPEDFATYYCQQYSHSSYTFGQGTKVEIKR
notes: Framework VH3-23 kappa 1; also called M-05.2
B3: M-C6.1 (antibody, V domains shown)
VH: QVQLVQSGAEVKKPGSSVKVSCKASGGTFSIYAISWVRQAPGQGLEWMGGIIPEFGTANYAQKFQGRVTITADESTSTAYMELSSLRSEDTAVYYCARSQIYTLSYPKWFDFWGQGTLVTVSS
VL: B2 VL with T28D, H32Y, G34N, T50D, Q89L, S92L, H93Q, S95P, Y96K
notes: Framework VH1A kappa 1
B4: M-L4 (antibody, V domains shown)
VH: EVQLLESGGGLVQPGGSLRLSCAASGFTFRSYAMSWVRQAPGKGLEWVSIISYDGSSTYYADSVKGRFTISRDNSKNTLYLQMNSLRAEDTAVYYCARTATSGSRGYFDYWGQGTLVTVSS
VL: DIQMTQSPSSLSASVGDRVTITCRASQDISSWLNWYQQKPGKAPKLLIFGASTLQSGVPSRFSGSGSGTDFTLTISSLQPEDFATYYCQQHYTSPVTFGQGTKVEIKR
notes: Framework VH3-23 kappa 1
B5: M-C4.2 (antibody, V domains shown)
VH: EVQLLESGGGLVQPGGSLRLSCAASGFTFSSYAMHWVRQAPGKGLEWVSVISSVGSSTYYADSVKGRFTISRDNSKNTLYLQMNSLRAEDTAVYYCARGGLDVWGQGTLVTVSS
VL: B4 VL with S31K, W32Y, F49Y, G50A, T53R, H91G, Y92D, T93S, S94T, V96F
notes: Framework VH3-23 kappa 1
B6: M-C6.2 (antibody, V domains shown)
VH: QVQLVQSGAEVKKPGSSVKVSCKASGGTFSSYAISWVRQAPGQGLEWMGGIIPILGIANYAQKFQGRVTITADESTSTAYMELSSLRSEDTAVYYCARSLPYRSDLYGFSRWSYHRVGMDVWGQGTLVTVSS
VL: B4 VL with S31N, W32T, F49Y, G50A, H91V, Y92G, T93S, S94F, V96Y
notes: Framework VH1A kappa 1
B7: M-C4.5 (antibody, V domains shown)
VH: QVQLQQSGPGLVKPSQTLSLTCAISGDSVSSNSAAWNWIRQSPSRGLEWLGRTYYRSKWYNDYAVSVKSRITINPDTSKNQFSLQLNSVTPEDTAVYYCARSAEPSYAYYHGFDYWGQGTLVTVSS
VL: DIQLTQSPSFLSASVGDRVTITCRASQGISSYLAWYQQKPGKAPKLLIYAASTLQSGVPSRFSGSGSGTEFTLTISSLQPEDFATYYCQQRIIFPQTFGQGTKVEIKR
notes: Selected from the MorphoSys Ylanthia library; framework VH6-1
B8: M-C4.3 (antibody, V domains shown)
VH: QVQLVQSGAEVKKPGSSVKVSCKASGGTFSDHTISWVRQAPGQGLEWMGGIIPIVGIANYAQKFQGRVTITADESTSTAYMELSSLRSEDTAVYYCAREYYVPDSGWFDYWGQGTLVTVSS
VL: DIQMTQSPSSLSASVGDRVTITCRASQDISDYLVWYQQKPGKAPKLLIYDASNLQSGVPSRFSGSGSGTDFTLTISSLQPEDFATYYCQQYYHYRTFGQGTKVEIKR
notes: Framework VH1A kappa 1
B9: M-C5.1 (antibody, V domains shown)
VH: QVQLVQSGAEVKKPGSSVKVSCKASGGTFSSYAISWVRQAPGQGLEWMGGIVPIFGTANYAQKFQGRVTITADESTSTAYMELSSLRSEDTAVYYCARVRYGYWDVWGQGTLVTVSS
VL: B4 VL with S30A, S31N, F49Y, G50A, T53S, H91Y, Y92I, T93S, S94L, V96I
notes: Framework VH1A kappa 1; also called M-05.1
B10: M-L1 (antibody, V domains shown)
VH: QVQLVQSGAEVKKPGSSVKVSCKASGGTFNSYAIHWVRQAPGQGLEWMGGIIPIFGIANYAQKFQGRVTITADESTSTAYMELSSLRSEDTAVYYCARDQYTYDYYRAFDYWGQGTLVTVSS
VL: DIVLTQSPATLSLSPGERATLSCRASQSVRDNLAWYQQKPGQAPRLLIYGASNRATGIPARFSGSGSGTDFTLTISSLEPEDFAVYYCQQYDHSPRTFGQGTKVEIKR
notes: Framework VH1A kappa 3

The target in one test is T1, MprF protein of Staphylococcus aureus (Staphylococcus aureus, UniProt Q2G2M2 1-840).
T1 construct: Presented on whole S. aureus cells (Protein A deletion mutant, delta spa; SA113 delta spa in the functional assays); also called MprF on S. aureus
T1 sequence: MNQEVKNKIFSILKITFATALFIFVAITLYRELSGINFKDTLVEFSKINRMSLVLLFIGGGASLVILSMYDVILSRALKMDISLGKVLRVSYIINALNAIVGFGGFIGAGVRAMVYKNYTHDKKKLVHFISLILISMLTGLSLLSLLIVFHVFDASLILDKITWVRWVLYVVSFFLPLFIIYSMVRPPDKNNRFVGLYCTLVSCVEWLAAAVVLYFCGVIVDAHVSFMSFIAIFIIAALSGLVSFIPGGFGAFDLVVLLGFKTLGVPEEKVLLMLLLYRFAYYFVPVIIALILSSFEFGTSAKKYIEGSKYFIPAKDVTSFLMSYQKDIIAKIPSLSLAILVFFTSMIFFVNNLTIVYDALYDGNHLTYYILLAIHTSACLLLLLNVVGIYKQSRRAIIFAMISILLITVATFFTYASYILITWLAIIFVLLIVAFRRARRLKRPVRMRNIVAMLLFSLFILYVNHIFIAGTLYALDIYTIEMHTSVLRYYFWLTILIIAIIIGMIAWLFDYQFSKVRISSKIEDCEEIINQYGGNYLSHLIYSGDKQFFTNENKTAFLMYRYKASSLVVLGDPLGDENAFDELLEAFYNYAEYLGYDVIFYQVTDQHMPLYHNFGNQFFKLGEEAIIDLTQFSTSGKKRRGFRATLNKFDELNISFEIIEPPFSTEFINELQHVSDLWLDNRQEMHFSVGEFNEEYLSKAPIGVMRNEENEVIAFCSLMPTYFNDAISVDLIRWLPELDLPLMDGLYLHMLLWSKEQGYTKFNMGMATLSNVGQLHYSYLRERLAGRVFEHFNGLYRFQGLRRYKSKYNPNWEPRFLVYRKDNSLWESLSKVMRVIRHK
Description: whole cell ELISA on S. aureus; E. coli as negative control. A general note: An ELISA detects its analyte on a solid surface through an enzyme-linked reagent.
In the case of B1, the binding result is on record as “binds”. On the same count and under the same terms, the entry for B2 is “binds”. In the case of B3, the binding result is “binds”. For the molecule B4, the binding result was “binds”. Consider B5, for which the binding result is recorded as “binds”.

On to B6, for which the binding result is “binds”. B7: the binding result was “binds”. With B8, the binding result is recorded as “binds”.

In a further test the target is T1, MprF protein of Staphylococcus aureus. Description: whole cell ELISA on S. aureus delta spa versus delta spa delta mprF.
Take B9: the binding result was “binds”. B10: the binding result was “binds”.

A further test concerns the target T2, Linear peptide, loop 4 of MprF (Staphylococcus aureus, also: N-terminal Cys coupled to BSA or transferrin, called biotinylated legend).
T2 construct: coated as BSA or transferrin conjugate in the ELISA; also called linear loop 4 peptide
T2 peptide: CGLGFKTLGVPEEKV
Description: ELISA, IgG on the peptide used in its selection (Table 2).
Regarding B4, the binding result is recorded as “binds”.

A further test deals with T3, Linear peptide, loop 1 of MprF (Staphylococcus aureus, added N-terminal Cysteine coupled to carrier protein BSA or transferrin; FIG. 2 legend calls it biotinylated).
T3 construct: coated as BSA or transferrin conjugate in the ELISA; also called linear loop 1 peptide
T3 peptide: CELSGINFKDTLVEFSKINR
Described as above.
Regarding B10, the binding result is reported as “binds”.
